Measurements: patent publication US7387779B2, “Anti-angiogenic proteins and fragments and methods of use thereof” (Beth Israel Deaconess Medical Center, priority 1998, dated 2008)

Key:
C-PAE cells [1] = assay: Total protein synthesis, 35S-methionine incorporation; assay type: cell-based, bovine
Experimental: Primary human renal epithelial cells (HRE) were purchased from Clonetics (San Diego, Calif., USA) and were maintained in REGM (Clonetics Corp.). Other cell lines were obtained and maintained as described above. Cells were serum-starved for 24 hrs (0.5% FCS), stimulated with 10% FCS in the presence of T3 peptide, Tumstatin-44-131, endostatin or rapamycin for 12-24 hours. After pre-incubation of cells in methionine-free media for 1 hour, cells were labeled with ^35S-methionine for 1 hour and incorporation of radioactivity into trichloracetic acid precipitates was analyzed (Sudhakar, A. et al., 2000, Biochem. 39:12929-38; Maeshima, Y. et al., 1996, J. Amer. Soc. Nephrol. 7:2219-29). ANOVA with a one-tailed Student's t test was used to identify significant differences in multiple comparisons in the present study. A level of P<0.05 was considered statistically significant.

C-PAE cells [2] = assay: Competitive proliferation assay with anti-Tum-4 antibody; assay type: cell-based, bovine; details: 1.5 μg/ml
Experimental: To determine if Turn-1 's inhibition of endothelial cell proliferation could be nullified by anti-Tum-4 antibody, a competitive proliferation assay was performed as described in Example 26, above. Tum-1 was preincubated with anti-Tum-4 antibody for the purpose of at least partially blocking the αvβ3 integrin binding site. It was then used in endothelial cell proliferation assays.
The results are shown in FIGS. 38A and 38B, which are histograms showing proliferation of C-PAE cells (y-axis) treated with 1.5 μg/ml Tum-1 (FIG. 38A) or Tum-2 (FIG. 38B) that had been preincubated with anti-Tum-4 antibody (1:100, 1:200, 1:500 dilution) (x-axis). Each column represents the mean ±the standard error of the mean for triplicate wells. The experiments were repeated three times. Asterisks indicate P<0.05 by one-tailed Student's t-test.

C-PAE cells [3] = assay: BrdU incorporation proliferation assay; assay type: cell-based, bovine; details: 0-2.0 μM
Experimental: The anti-proliferative affect of Tumstatin-44-131 on C-PAE cells was examined via BrdU incorporation assay. This assay uses bromodeoxyuridine (BrdU) instead of ^3H-thymidine as a thymidine analog. BrdU is incorporated into newly synthesized DNA strands in actively proliferating cells. The BrdU incorporated into the cells can then be detected immunochemically. The assay was conducted using the BrdU proliferation assay kit (CalbioChem, San Diego, Calif., USA) according to the manufacturer's instructions, with some modifications. C-PAE cells were seeded onto 96-well plates in DMEM containing 10% FCS. The next day, the medium was replaced with DMEM containing 2% FCS with or without E. Coli-expressed Tumstatin-44-131, or full-length Tumstatin expressed in 293 cells. The plates were then incubated for 46 hours, and the cells were then pulsed for two hours with 10 nM BrdU. The cells and DNA were then fixed to the wells, reacted with anti-BrdU primary and secondary antibodies, and then developed with a calorimetric reaction supplied with the kit. The plates were then read at OD450 on a plate reader (Molecular Dynamics, Sunnyvale, Calif., USA).

MLEC β3+/+ = assay: Protein synthesis and cap-dependent translation in wild-type mouse lung endothelial cells; assay type: cell-based; details: 4.5 μM; rapamycin 100 ng/ml
Description: (§1) Therefore, to evaluate the effect of tumstatin peptides on cap-dependent and independent translation, endothelial cells were isolated from lungs of 12-week-old mice that were deficient in the expression of αvβ3 integrin (i.e., 3 integrin-deficient mice), and also their wild-type counterparts (Hodivala-Dilke, K. M. et al., 1999, J. Clin. Invest. 103:229-38). Briefly, ICAM-2 expressing MLEC were enriched using rat anti-mouse ICAM-2 (# 01800D, PharMingen, San Diego, Calif., USA) conjugated to magnetic beads (Dynabeads M-450, Dynal, Oslo, Norway). MLEC were maintained in 40% Ham's F-12,40% DME-Low Glucose, 20% FBS supplemented with heparin, endothelial mitogen (Biomedical Technologies, Inc., Cambridge, Mass., USA), glutamine and penicillin/streptomycin. Wild-type and β3-integrin-deficient mouse embryonic fibroblasts were prepared (Hodivala-Dilke, K. M. et al., 1999, J. Clin. Invest. 103:229-38). MEFs were maintained in DMEM containing 10% FBS. MLEC were characterized for homogeneity by morphological observations and by immunofluorescence staining for endothelial-specific markers. Cells between passage 3 and 6 were used for the experiments.

MLEC β3−/− = assay: Protein synthesis and cap-dependent translation in β3-integrin deficient endothelial cells; assay type: cell-based, mouse; details: 4.5 μM; rapamycin 100 ng/ml
Description: as §1

PC-3 cells = assay: Annexin V-FITC apoptosis assay; assay type: cell-based, human
Experimental: Annexin V-FITC Labeling. In order to establish apoptosis as the potential mode of action for Canstatin, Annexin V-FITC was used to label externalized phosphatidylserine (PS), to assess apoptotic cells. 0.5×10^6 C-PAE cells, PC-3, 786-O and HEK 293 cells were added to each well of a 6 well tissue culture plate in 10% FBS supplemented DMEM (BioWhittaker, Walkersville, Md., USA) overnight. The next day, fresh medium was added to all wells together with 40 ng/ml TNF-α (positive control) or 15 μg/ml Canstatin. Control cells received an equal volume of PBS. After 24 hours of treatment, medium containing detached cells was collected and attached cells were trypsinized and combined with detached cells and centrifuged at 3,000×g. Cells were then washed and phosphatidyl-serine externalization (an early apoptotic indicator) was measured by labeling with FITC-labeled annexin V (Clontech, Palo Alto, Calif., USA) according to the manufacturer's instructions. Annexin V-FITC-labeled cells were counted using a FAC Star Plus flow cytometer (Becton-Dickenson, Waltham, Mass., USA). For each treatment 15,000 cells were counted and stored in listmode. […] Annexin V-FITC labeled cells were counted using a FACStar Plus flow cytometer (Becton-Dickinson, Waltham, Mass., USA). For each treatment, 15,000 cells were counted and stored in listmode.

LQRFTTMPFLFCNVNDVCNF [T3]
maximal inhibition of protein synthesis (C-PAE cells [1]; 22.7 μM): about 45%

B1: Tum-1: residues 54 to 244 of Tumstatin, lacking the N-terminal 53 amino acids (SEQ ID NO:22) (protein)
chain: QRAHGQDLGTLGSCLQRFTTMPFLFCNVNDVCNFASRNDYSYWLSTPALMPMNMAPITGRALEPYISRCTVCEGPAIAIAVHSQTTDIPPCPHGWISLWKGFSFIMFTSAGSEGTGQALASPGSCLEEFRASPFLECHGRGTCNYYSNSYSFWLASLNPERMFRKPIPSTVKAGELEKIISRCQVCMKKRH
modifications: Tum-1 (Tumstatin N-53) (amino acids 54-244 of SEQ ID NO10)
anti-proliferative effect after pre-incubation with anti-Tum-4 antibody (C-PAE cells [2]): not altered

B2: Tum-2: residues 1 to 132 of Tumstatin (SEQ ID NO:23) (protein)
chain: GLKGKRGDSGSPATWTTRGFVFTRHSQTTAIPSCPEGTVPLYSGFSFLFVQGNQRAHGQDLGTLGSCLQRFTTMPFLFCNVNDVCNFASRNDYSYWLSTPALMPMNMAPITGRALEPYISRCTVCEGPAIAI
modifications: Tum-2 (amino acids 1-132 of SEQ ID NO10)
anti-proliferative effect after pre-incubation with anti-Tum-4 antibody (C-PAE cells [2]): not affected

B3: Tumstatin-44-131: residues 44 to 131 of full-length Tumstatin (SEQ ID NO:33) (protein)
chain: FSFLFVQGNQRAHGQDLGTLGSCLQRFTTMPFLFCNVNDVCNFASRNDYSYWLSTPALMPMNMAPITGRALEPYISRCTVCEGPAIAI
modifications: Tumstatin-45-132 (amino acids 45-132 of SEQ ID NO10)
incorporation of BrdU (C-PAE cells [3]): decreased incorporation of BrdU

B4: endostatin: tumor associated angiogenesis inhibitor used as comparator (protein, UniProt P39060 1572-1754, looked up)
Endostatin: HSHRDFQPVLHLVALNSPLSGGMRGIRGADFQCFQQARAVGLAGTFRAFLSSRLQDLYSIVRRADRAAVPIVNLKDELLFPSWEALFSGSEGPLKPGARIFSFDGKDVLRHPTWPQKSVWHGSDPNGRRLTESYCETWRTEAPSATGQASSLLGGRLLGQSAASCHHAYIVLCIENSFMTASK
modifications: Endostatin
inhibition of protein synthesis (C-PAE cells [1]; 4.5 μM, 24 hours of serum stimulation, rapamycin 100 ng/ml): did not inhibit protein synthesis | protein synthesis / cap-dependent translation in control (β3+/+) endothelial cells (MLEC β3+/+): did not exhibit this property | cap-dependent protein synthesis in αvβ3 integrin deficient (β3−/−) endothelial cells (MLEC β3−/−): did not exhibit this property

B5: Canstatin: NC1 domain of the α2 chain of Type IV collagen (SEQ ID NO:6) (protein, listed as Homo sapiens)
chain: VSIGYLLVKHSQTDQEPMCPVGMNKLWSGYSLLYFEGQEKAHNQDLGLAGSCLARFSTMPFLYCNPGDVCYYASRNDKSYWLSTTAPLPMMPVAEDEIKPYISRCSVCEAPAIAIAVHSQDVSIPHCPAGWRSLWIGYSFLMHTAAGDEGGGQSLVSPGSCLEDFRATPFIECNGGRGTCHYYANKYSFWLTTIPEQSFQGSPSADTLKAGLIRTHISRCQVCMKNL
apoptosis of PC-3 cells (PC-3 cells): no significant effect

B6: Tumstatin: NC1 domain of the α3 chain of type IV collagen, residues 1-244 (SEQ ID NO:10) (protein, listed as Homo sapiens)
chain: GLKGKRGDSGSPATWTTRGFVFTRHSQTTAIPSCPEGTVPLYSGFSFLFVQGNQRAHGQDLGTLGSCLQRFTTMPFLFCNVNDVCNFASRNDYSYWLSTPALMPMNMAPITGRALEPYISRCTVCEGPAIAIAVHSQTTDIPPCPHGWISLWKGFSFIMFTSAGSEGTGQALASPGSCLEEFRASPFLECHGRGTCNYYSNSYSFWLASLNPERMFRKPIPSTVKAGELEKIISRCQVCMKKRH
apoptosis of PC-3 cells (PC-3 cells): not observed | incorporation of BrdU (C-PAE cells [3]): decreased incorporation of BrdU | protein synthesis / cap-dependent translation in control (β3+/+) endothelial cells (MLEC β3+/+): inhibited protein synthesis | cap-dependent protein synthesis in αvβ3 integrin deficient (β3−/−) endothelial cells (MLEC β3−/−): did not have any effect
